First the molecules themselves.
T1: human CCR4 (human, UniProt P51679 1-360)
T1 construct: full length, on Expi293 cells; also called hCCR4
T1 sequence: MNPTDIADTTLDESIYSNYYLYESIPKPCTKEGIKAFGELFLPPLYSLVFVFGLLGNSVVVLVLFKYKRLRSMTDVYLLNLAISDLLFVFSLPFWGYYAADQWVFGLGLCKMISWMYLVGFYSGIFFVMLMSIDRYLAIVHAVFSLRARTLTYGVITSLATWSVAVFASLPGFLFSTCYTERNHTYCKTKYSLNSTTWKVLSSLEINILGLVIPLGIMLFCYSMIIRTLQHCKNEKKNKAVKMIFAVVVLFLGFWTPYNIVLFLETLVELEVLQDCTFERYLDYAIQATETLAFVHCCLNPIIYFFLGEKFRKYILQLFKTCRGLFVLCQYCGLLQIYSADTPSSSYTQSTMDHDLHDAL

T2: mouse CCR8 (mouse, UniProt P56484 1-353)
T2 construct: full length, on Expi293 cells; also called mCCR8
T2 sequence: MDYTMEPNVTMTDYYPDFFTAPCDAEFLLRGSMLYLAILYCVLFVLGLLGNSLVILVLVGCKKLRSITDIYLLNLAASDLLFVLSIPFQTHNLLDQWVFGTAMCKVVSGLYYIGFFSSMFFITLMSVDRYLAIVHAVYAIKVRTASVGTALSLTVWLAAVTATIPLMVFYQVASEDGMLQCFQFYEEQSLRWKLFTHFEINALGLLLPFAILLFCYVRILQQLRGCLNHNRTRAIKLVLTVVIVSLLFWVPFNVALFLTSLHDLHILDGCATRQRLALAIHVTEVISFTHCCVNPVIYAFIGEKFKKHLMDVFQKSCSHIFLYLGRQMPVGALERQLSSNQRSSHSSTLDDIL

T3: N-ter hCCR4-hCCR8 (human)
T3 construct: chimera on Expi293 cells; also called human CCR8 with the N-terminal region substituted with that of human CCR4
T3 chain: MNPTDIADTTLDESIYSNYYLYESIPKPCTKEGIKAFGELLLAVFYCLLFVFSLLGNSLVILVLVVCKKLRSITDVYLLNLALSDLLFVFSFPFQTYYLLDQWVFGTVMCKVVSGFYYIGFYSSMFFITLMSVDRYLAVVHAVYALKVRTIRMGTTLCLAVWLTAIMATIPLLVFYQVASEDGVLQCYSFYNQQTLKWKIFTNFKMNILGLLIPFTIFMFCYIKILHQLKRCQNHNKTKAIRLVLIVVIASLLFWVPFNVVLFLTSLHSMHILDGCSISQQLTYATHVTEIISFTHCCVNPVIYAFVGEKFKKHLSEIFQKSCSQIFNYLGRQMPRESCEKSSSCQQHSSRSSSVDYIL

B1: 27G1 (antibody, V domains shown)
VH: EVQLVESGGRLVQPKGSLKLSCAASGFAFNTYAMYWIRQAPGKGLEWVARIRSKSNNYATYYADSVKDRFTISRDDSQSMLYLQMNNLKTEDTAMYYCVRARFYYSDYGYAMDYWGQGTSVTVSS
VL: DIVMTQAAPSVPVTPGESVSISCRSSKSLLHSNGNTYLYWFLQRPGQSPQLLIYRMSNLASGVPDRFSGSGSGTAFTLRISRVEAEDVGVYYCMQHLEYPLTFGAGTKLELKR
notes: mouse hybridoma antibody, purified
B2: 8F7 (antibody, V domains shown)
VH: EVQLVESGGRLVQPKRSLKLSCAASGFTFNPYAMYWIRQAPGQGLEWVARIRSKSNNYATYYADSVKDRFTISRDDSQSMLYLQMNNLKTEDTAMYYCVRGHQGTMDYWGQGTSVTVSS
VL: B1 VL with I53T, L101F, A105G, L111I
notes: as for B1
B3: 10A11 (antibody, V domains shown)
VH: B1 VH with M34L
VL: B1 VL
notes: mouse hybridoma antibody, purified; also called m10A11
B4: 2-7B (antibody, V domains shown)
VH: EVQLVESDGGLVQPGRSLKLSCAASGFTFSDYYMAWVRQAPTKGLEWVATITYDVYSTYYRDSVKGRFTISRDNAKSTLYLQMDSLRSEDTATYYCARHGGDGYNSGNWFAYWGQGTLVTVSS
VL: DIVLTQSPALAVSLGQRATISCRASQSVSISRYNIMHWYQQKPGQQPKLLIYRASNLASGIPARFSGSGSGTDFTLTINPVQADDIATYYCQQSRESPPTFGGGTKLELKR
B5: h10A11 (IGKV3-20/IGHV3-15 T94R) (antibody, V domains shown)
VH: EVQLVESGGALVKPGGSLRLSCAASGFTFSTYALYWVRQAPGKGLEWVGRIRSKSNNYATYYADSVKDRFTISRDDSKNTLYLQMNSLKTEDTAVYYCTRARFYYSDYGYAMDYWGQGTLVTVSS
VL: EIVLTQSPGTLSLSPGERATLSCRSSKSLLHSNGNTYLYWYQQKPGQAPRLLIYRMSNLASGIPDRFSGSGSGTDFTLTISRLEPEDFAVYYCMQHLEYPLTFGQGTKVEIKR
B6: h10A11 (IGKV1-39/IGHV3-15 T94R) (antibody, V domains shown)
VH: B5 VH
VL: DIQMTQSPSSLSASVGDRVTITCRSSKSLLHSNGNTYLYWYQQKPGKAPKLLIYRMSNLASGVPSRFSGSGSGTDFTLTISSLQPEDFATYYCMQHLEYPLTFGQGTKLEIKR
B7: h10A11 (IGKV1-16/IGHV3-15 T94R) (antibody, V domains shown)
VH: B5 VH
VL: B6 VL with Y41F, L51S
B8: h10A11 (IGKV1-39/IGHV3-73) (antibody, V domains shown)
VH: B5 VH with A10G, K13Q, R19K, T28A, S30N, P41S, L81A
VL: B6 VL
B9: h10A11 (IGKV2-40/IGHV3-73) (antibody, V domains shown)
VH: B5 VH with A10G, K13Q, R19K, T28A, S30N, P41S, L81A
VL: DIVMTQTPLSLPVTPGEPASISCRSSKSLLHSNGNTYLYWYLQKPGQSPQLLIYRMSNLASGVPDRFSGSGSGTDFTLKISRVEAEDVGVYYCMQHLEYPLTFGQGTKLEIKR
B10: h10A11 (IGKV2-28/IGHV3-73) (antibody, V domains shown)
VH: B5 VH with A10G, K13Q, R19K, T28A, S30N, P41S, L81A
VL: B9 VL with T7S, L109V
B11: h10A11 (IGKV2-40/IGHV3-15 T94R) (antibody, V domains shown)
VH: B5 VH
VL: B9 VL
B12: humanized 10A11 mutant (IGKV3-20 N53Q, N28K/IGHV3-15 T94R) (antibody, V domains shown)
VH: B5 VH
VL: B5 VL with N33K, N58Q
B13: humanized 10A11 antibody (light chain variable region: IGKV4-1 N53Q+G29R/heavy chain variable region: IGHV3-15 T94R) (antibody, V domains shown)
VH: B5 VH
VL: DIVMTQSPDSLAVSLGERATINCRSSKSLLHSNRNTYLYWYQQKPGQPPKLLIYRMSQLASGVPDRFSGSGSGTDFTLTISSLQAEDVAVYYCMQHLEYPLTFGQGTKLEIKR
B14: humanized 10A11 mutant (IGKV3-20 N53Q, G29R/IGHV3-15 T94R) (antibody, V domains shown)
VH: B5 VH
VL: B5 VL with G34R, N58Q
B15: humanized 10A11 mutant (IGKV3-20 N53Q, G29L/IGHV3-15 T94R) (antibody, V domains shown)
VH: B5 VH
VL: B5 VL with G34L, N58Q

Residue numbers refer to the chain shown, from its start. Names and notes keep the numbering of the source.

In the first assay the target is T4, human CCR8 (human, UniProt P51685 1-355). In words: cell-based or functional assay.
Take B1: the “Neutralizing activity IC50 (nM), Ca2+ influx by 100 nM hCCL1” value came out at 0.09 nM.
Same read-out and setting: next, B2: 1.56 nM; B3: 0.08 nM.

In the next assay the target is T4, human CCR8. In words: cell-based or functional assay. The source holds these as a separate data set.
Consider B2, for which the “IC50 (nM), Ca2+ influx by 200 nM hCCL1” value came to 3.03 nM.
Still for that read-out and setting: next, B3: 0.23 nM.
Same read-out and setting: next, B4: 0.23 nM.

In a further assay the target is T4, human CCR8. In words: cell-based or functional assay. This is another data set of the same source.
Consider B3, for which the “IC50 (nM), Ca2+ influx by 200 nM hCCL1” value is 0.23 nM.
Turning to B5, the “IC50 (nM), Ca2+ influx by 200 nM hCCL1” value was determined as 0.16 nM.
Same read-out and setting: as for B6, the figure is 0.2 nM; as for B7, 0.7 nM; as for B8, 0.16 nM.
Regarding B9, the “IC50 (nM), Ca2+ influx by 200 nM hCCL1” value amounted to 0.21 nM.
Turning to B10, the “IC50 (nM), Ca2+ influx by 200 nM hCCL1” value was found to be 0.2 nM.
Same read-out and setting: as for B11, the figure is 0.3 nM.

The target of a further assay is T4, human CCR8. Nature of the assay: cell-based or functional assay. The source holds these as a separate data set.
With B12, the “IC50 (nM), Ca2+ influx by 200 nM hCCL1” value came to 0.29 nM.
Still for that read-out and setting: next, B13: 0.12 nM; B14: 0.19 nM; B15: 0.21 nM.

Another assay deals with T5, hCCR8 (Y17A) (human, UniProt P51685 1-355).
T5 construct: also called mutant in which Y at position 17 of human CCR8 is substituted for A
In words: flow cytometry on Expi293 transfectants. On the technique in general: In flow cytometry, cells or beads pass a laser one at a time.
B1: the binding result is given as “no binding”.
For the molecule B2, the binding result was “no binding”.
The same measure, in the same setting: as for B3, the entry is “no binding”.

A further assay deals with T1, human CCR4. Nature of the assay: flow cytometry on Expi293 transfectants.
In the case of B1, the binding result is on record as “no binding”.
Still for that read-out and setting: as for B2, the entry is “no binding”.
On the same count and under the same terms, next, B3: “no binding”.

In a further assay the target is T2, mouse CCR8. Nature of the assay: flow cytometry on Expi293 transfectants.
As for B1, the binding result is “no binding”.
Still for that read-out and setting: as for B2, the entry is “no binding”; as for B3, “no binding”.

Another assay deals with T3, N-ter hCCR4-hCCR8. Nature of the assay: flow cytometry on Expi293 transfectants.
On to B1, for which the binding result is given as “no binding”.
Still for that read-out and setting: as for B2, the entry is “no binding”; as for B3, “no binding”.

Another assay addresses T6, loop1 hCCR4-hCCR8 (human, UniProt P51685 1-355).
T6 construct: chimera on Expi293 cells; hCCR8 94-107 replaced; also called loop1-human CCR4-substituted human CCR8
Nature of the assay: flow cytometry on Expi293 transfectants.
Turning to B2, the binding result was “no binding”.

The target of another assay is T7, loop3 hCCR4-hCCR8 (human, UniProt P51685 1-355).
T7 construct: chimera on Expi293 cells; hCCR8 264-280 replaced
In words: FCM, Expi293 transfectants; blank cell = same binding activity as wild-type hCCR8.
As for B1, the binding result was “binds”.
Take B2: the binding result is listed as “binds”.
For B3, the binding result is on record as “binds”.

The target in another assay is T6, loop1 hCCR4-hCCR8. In words: FCM, Expi293 transfectants; Δ = significantly reduced binding activity vs wild-type hCCR8.
B1: the binding result is reported as “binds”.
As to B3, the binding result is listed as “binds”.

For the next assay, the target named is T8, loop2 hCCR4-hCCR8 (human, UniProt P51685 1-355).
T8 construct: chimera on Expi293 cells; hCCR8 172-202 replaced; also called loop2-human CCR4-substituted human CCR8
Described as above.
In the case of B1, the binding result was “binds”.
Same read-out and setting: as for B2, the entry is “binds”; as for B3, “binds”.

The values are drawn from patent US20230256092A1 (SHIONOGI, published 2023).
